To fix the notation:
B1: Intersectin-2, residues 1129 to 1183; numbered along this chain, Q9NZM3 (parent)
chain: VCQVIAMYDYAANNEDELSFSKGQLINVMNKDDPDWWQGEINGVTGLFPSNYVKM

± gives the uncertainty stated by the source.

Variants of B1 are the subject of the data set. Nature of the data set: abundance fitness (aPCA) (normalised: wild type 0, dead -1); higher = more abundant; growth selection in yeast, the domain comes from the species named. As to conditions: Homo sapiens.
Take VCQVIAMYDYAANNSDELSFSKGQLINVMNKDDPDWWQGEINGVTGLFPSNYVKM [E15S]: the abundance fitness is -0.01 ± 0.039.
Under VCQVIAMYDYAANNVDELSFSKGQLINVMNKDDPDWWQGEINGVTGLFPSNYVKM [E15V] stands -0.014 ± 0.045.
Next, VCQVIAMYDYAANNHDELSFSKGQLINVMNKDDPDWWQGEINGVTGLFPSNYVKM [E15H]: 0 ± 0.068; VCQVIAMYDYAANNYDELSFSKGQLINVMNKDDPDWWQGEINGVTGLFPSNYVKM [E15Y]: -0.002 ± 0.06; VCQVIAMYDYAANNIDELSFSKGQLINVMNKDDPDWWQGEINGVTGLFPSNYVKM [E15I]: -0.076 ± 0.054.
Next, VCQVIAMYDYAANNMDELSFSKGQLINVMNKDDPDWWQGEINGVTGLFPSNYVKM [E15M]: -0.083 ± 0.061.
For the variant VCQVIAMYDYAANNRDELSFSKGQLINVMNKDDPDWWQGEINGVTGLFPSNYVKM [E15R], the abundance fitness was -0.037 ± 0.03.
Next, VCQVIAMYDYAANNWDELSFSKGQLINVMNKDDPDWWQGEINGVTGLFPSNYVKM [E15W]: -0.141 ± 0.047.
With VCQVIAMYDYAANNGDELSFSKGQLINVMNKDDPDWWQGEINGVTGLFPSNYVKM [E15G], the abundance fitness is -0.006 ± 0.034.
Next, VCQVIAMYDYAANNFDELSFSKGQLINVMNKDDPDWWQGEINGVTGLFPSNYVKM [E15F]: -0.12 ± 0.06; VCQVIAMYDYAANNCDELSFSKGQLINVMNKDDPDWWQGEINGVTGLFPSNYVKM [E15C]: -0.048 ± 0.031; VCQVIAMYDYAANNADELSFSKGQLINVMNKDDPDWWQGEINGVTGLFPSNYVKM [E15A]: -0.03 ± 0.036.
As for VCQVIAMYDYAANNPDELSFSKGQLINVMNKDDPDWWQGEINGVTGLFPSNYVKM [E15P], the abundance fitness turned out to be 0.011 ± 0.036.
Next, VCQVIAMYDYAANNTDELSFSKGQLINVMNKDDPDWWQGEINGVTGLFPSNYVKM [E15T]: 0.033 ± 0.049.
Next, VCQVIAMYDYAANNNDELSFSKGQLINVMNKDDPDWWQGEINGVTGLFPSNYVKM [E15N]: -0.123 ± 0.069; VCQVIAMYDYAANNKDELSFSKGQLINVMNKDDPDWWQGEINGVTGLFPSNYVKM [E15K]: -0.048 ± 0.059; VCQVIAMYDYAWNNEDELSFSKGQLINVMNKDDPDWWQGEINGVTGLFPSNYVKM [A12W]: -0.685 ± 0.098.
Next, VCQVIAMYDYAVNNEDELSFSKGQLINVMNKDDPDWWQGEINGVTGLFPSNYVKM [A12V]: -0.334 ± 0.042; VCQVIAMYDYASNNEDELSFSKGQLINVMNKDDPDWWQGEINGVTGLFPSNYVKM [A12S]: -0.056 ± 0.035; VCQVIAMYDYATNNEDELSFSKGQLINVMNKDDPDWWQGEINGVTGLFPSNYVKM [A12T]: -0.038 ± 0.035.
Consider VCQVIAMYDYAYNNEDELSFSKGQLINVMNKDDPDWWQGEINGVTGLFPSNYVKM [A12Y], for which the abundance fitness was -0.455 ± 0.045.
Under VCQVIAMYDYAANHEDELSFSKGQLINVMNKDDPDWWQGEINGVTGLFPSNYVKM [N14H] stands 0.02 ± 0.066.
Next, VCQVIAMYDYAANDEDELSFSKGQLINVMNKDDPDWWQGEINGVTGLFPSNYVKM [N14D]: -0.089 ± 0.047.
Under VCQVIAMYDYAANMEDELSFSKGQLINVMNKDDPDWWQGEINGVTGLFPSNYVKM [N14M] stands -0.016 ± 0.042.
VCQVIAMYDYAANFEDELSFSKGQLINVMNKDDPDWWQGEINGVTGLFPSNYVKM [N14F]: the abundance fitness is -0.08 ± 0.063.
VCQVIAMYDYAANVEDELSFSKGQLINVMNKDDPDWWQGEINGVTGLFPSNYVKM [N14V]: the abundance fitness was -0.099 ± 0.043.
Next, VCQVIAMYDYAANEEDELSFSKGQLINVMNKDDPDWWQGEINGVTGLFPSNYVKM [N14E]: -0.044 ± 0.036.
Under VCQVIAMYDYAANGEDELSFSKGQLINVMNKDDPDWWQGEINGVTGLFPSNYVKM [N14G] stands -0.024 ± 0.045; under VCQVIAMYDYAANSEDELSFSKGQLINVMNKDDPDWWQGEINGVTGLFPSNYVKM [N14S], 0.014 ± 0.046.
Next, VCQVIAMYDYAANIEDELSFSKGQLINVMNKDDPDWWQGEINGVTGLFPSNYVKM [N14I]: -0.092 ± 0.065; VCQVIAMYDYAANQEDELSFSKGQLINVMNKDDPDWWQGEINGVTGLFPSNYVKM [N14Q]: -0.01 ± 0.056; VCQVIAMYDYAANYEDELSFSKGQLINVMNKDDPDWWQGEINGVTGLFPSNYVKM [N14Y]: -0.048 ± 0.065.
As for VCQVIAMYDYAANREDELSFSKGQLINVMNKDDPDWWQGEINGVTGLFPSNYVKM [N14R], the abundance fitness is 0.007 ± 0.029.
Next, VCQVIAMYDYAANCEDELSFSKGQLINVMNKDDPDWWQGEINGVTGLFPSNYVKM [N14C]: -0.027 ± 0.061.
Next, VCQVIAMYDYAANPEDELSFSKGQLINVMNKDDPDWWQGEINGVTGLFPSNYVKM [N14P]: -0.535 ± 0.062.
Next, VCQVIAMYDYAANTEDELSFSKGQLINVMNKDDPDWWQGEINGVTGLFPSNYVKM [N14T]: -0.001 ± 0.044; VCQVIAMYDYAANAEDELSFSKGQLINVMNKDDPDWWQGEINGVTGLFPSNYVKM [N14A]: -0.038 ± 0.05; VCQVIAMYDYAANWEDELSFSKGQLINVMNKDDPDWWQGEINGVTGLFPSNYVKM [N14W]: -0.203 ± 0.039.
Take VCQVIAMYDYAAQNEDELSFSKGQLINVMNKDDPDWWQGEINGVTGLFPSNYVKM [N13Q]: the abundance fitness was 0.051 ± 0.033.
Under VCQVIAMYDYAAWNEDELSFSKGQLINVMNKDDPDWWQGEINGVTGLFPSNYVKM [N13W] stands -0.306 ± 0.069; under VCQVIAMYDYAAMNEDELSFSKGQLINVMNKDDPDWWQGEINGVTGLFPSNYVKM [N13M], -0.014 ± 0.037.
Next, VCQVIAMYDYAACNEDELSFSKGQLINVMNKDDPDWWQGEINGVTGLFPSNYVKM [N13C]: -0.047 ± 0.056; VCQVIAMYDYAAGNEDELSFSKGQLINVMNKDDPDWWQGEINGVTGLFPSNYVKM [N13G]: 0.031 ± 0.039.
Under VCQVIAMYDYAAYNEDELSFSKGQLINVMNKDDPDWWQGEINGVTGLFPSNYVKM [N13Y] stands -0.141 ± 0.069; under VCQVIAMYDYAAENEDELSFSKGQLINVMNKDDPDWWQGEINGVTGLFPSNYVKM [N13E], -0.017 ± 0.041; under VCQVIAMYDYAARNEDELSFSKGQLINVMNKDDPDWWQGEINGVTGLFPSNYVKM [N13R], 0.038 ± 0.047.
With VCQVIAMYDYAAINEDELSFSKGQLINVMNKDDPDWWQGEINGVTGLFPSNYVKM [N13I], the abundance fitness is -0.071 ± 0.05.
Regarding VCQVIAMYDYAADNEDELSFSKGQLINVMNKDDPDWWQGEINGVTGLFPSNYVKM [N13D], the abundance fitness was -0.033 ± 0.034.
